Read-outs that look alike come from different tables or passages of the source.
Assays:
crystal structure [1] = target: the molecule itself; assay: crystal structure
crystal structure [2] = target: the molecule itself; assay: crystal structure; remark: listed apart in the source

Protein	binding result (crystal structure [1])	binding result (crystal structure [2])
OpgG from E. coli (EcOpgG) D361N mutant (enzyme, Escherichia coli, UniProt P33136 23-511, looked up) FSIDDVAKQAQSLAGKGYETPKSNLPSVFRDMKYADYQQIQFNHDKAYWNNLKTPFKLEFYHQGMYFDTPVKINEVTATAVKRIKYSPDYFTFGDVQHDKDTVKDLGFAGFKVLYPINSKDKNDEIVSMLGASYFRVIGAGQVYGLSARGLAIDTALPSGEEFPRFKEFWIERPKPTDKRLTIYALLDSPRATGAYKFVVMPGRDTVVDVQSKIYLRDKVGKLGVAPLTSMFLFGPNQPSPANNYRPELHDSNGLSIHAGNGEWIWRPLNNPKHLAVSSFSMENPQGFGLLQRGRDFSRFEDLDDRYDLRPSAWVTPKGEWGKGSVELVEIPTNDETNNNIVAYWTPDQLPEPGKEMNFKYTITFSRDEDKLHAPDNAWVQQTRRSTGDVKQSNLIRQPDGTIAFVVDFTGAEMKKLPEDTPVTAQTSIGDNGEIVESTVRYNPVTKGWRLVMRVKVKDAKKTTEMRAALVNADQTLSETWSYQLPANE	binds	
OpgD from E. coli (EcOpgD) D388N mutant (enzyme, Escherichia coli, UniProt P40120 33-551, looked up) ADSDIADGQTQRFDFSILQSMAHDLAQTAWRGAPRPLPDTLATMTPQAYNSIQYDAEKSLWHNVENRQLDAQFFHMGMGFRRRVRMFSVDPATHLAREIHFRPELFKYNDAGVDTKQLEGQSDLGFAGFRVFKAPELARRDVVSFLGASYFRAVDDTYQYGLSARGLAIDTYTDSKEEFPDFTAFWFDTVKPGATTFTVYALLDSASITGAYKFTIHCEKSQVIMDVENHLYARKDIKQLGIAPMTSMFSCGTNERRMCDTIHPQIHDSDRLSMWRGNGEWICRPLNNPQKLQFNAYTDNNPKGFGLLQLDRDFSHYQDIMGWYNKRPSLWVEPRNKWGKGTIGLMEIPTTGETLNNIVCFWQPEKAVKAGDEFAFQYRLYWSAQPPVHCPLARVMATRTGMGGFSEGWAPGEHYPEKWARRFAVDFVGGDLKAAAPKGIEPVITLSSGEAKQIEILYIEPIDGYRIQFDWYPTSDSTDPVDMRMYLRCQGDAISETWLYQYFPPAPDKRQYVDDRVMS		binds

From publication doi:10.1101/2023.03.29.533101 (bioRxiv, 2023)
